Assays:
[1] = biological target: ATPase domain of ParE, strep-tagged (E. coli); assay: BLI; […]; 30 °C; PBS with 0.2% BSA, 0.02% Tween-20; association and dissociation 120 s; […]
[2] = biological target: T1, His-tagged Cpe1tox^C362A (catalytically inactive toxin domain) (Escherichia coli strain ATCC 11775, UniProt P0DXX9 338-479, C362A); assay: BLI
T1 sequence: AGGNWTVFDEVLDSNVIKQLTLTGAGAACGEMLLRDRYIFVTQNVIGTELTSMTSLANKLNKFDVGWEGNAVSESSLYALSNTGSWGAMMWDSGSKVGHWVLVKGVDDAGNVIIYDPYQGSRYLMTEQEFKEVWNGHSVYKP

[3] = biological target: T2, His-tagged Cpe1tox^C362A (catalytically inactive toxin domain) (Escherichia coli strain ATCC 11775, UniProt P0DXX9 338-479, C362A); assay: BLI; […]; 30 °C; PBS with 0.2% BSA, 0.02% Tween-20; association 150 s, dissociation 300 s; 1:1 global fit; settings: both partners purified
T2 construct: not shown: His6, N-terminal, kept
T2 sequence: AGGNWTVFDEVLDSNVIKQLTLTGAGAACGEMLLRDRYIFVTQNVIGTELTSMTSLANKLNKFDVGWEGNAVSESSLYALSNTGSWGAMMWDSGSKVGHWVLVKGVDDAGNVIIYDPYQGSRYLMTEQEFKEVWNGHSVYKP

Row | Binder | Kd [1] [nM] | koff [2] [s⁻¹] | Kd [3] [nM]
1 | His-tagged Cpe1tox^C362A (catalytically inactive toxin domain) (domain or fragment) AGGNWTVFDEVLDSNVIKQLTLTGAGAACGEMLLRDRYIFVTQNVIGTELTSMTSLANKLNKFDVGWEGNAVSESSLYALSNTGSWGAMMWDSGSKVGHWVLVKGVDDAGNVIIYDPYQGSRYLMTEQEFKEVWNGHSVYKP | 343 |  | 
2 | ATPase domain of ParE, strep-tagged (domain or fragment, C-terminal strep tag left out. Limits are not given; 1-390 is taken from the 43-kDa ATPase domain in PDB 1S16 (390 aa), which the paper uses for ParE. The K-12 strain is inferred.) MTQTYNADAIEVLTGLEPVRRRPGMYTDTTRPNHLGQEVIDNSVDEALAGHAKRVDVILHADQSLEVIDDGRGMPVDIHPEEGVPAVELILCRLHAGGKFSNKNYQFSGGLHGVGISVVNALSKRVEVNVRRDGQVYNIAFENGEKVQDLQVVGTCGKRNTGTSVHFWPDETFFDSPRFSVSRLTHVLKAKAVLCPGVEITFKDEINNTEQRWCYQDGLNDYLAEAVNGLPTLPEKPFIGNFAGDTEAVDWALLWLPEGGELLTESYVNLIPTMQGGTHVNGLRQGLLDAMREFCEYRNILPRGVKLSAEDIWDRCAYVLSVKMQDPQFAGQTKERLSSRQCAAFVSGVVKDAFILWLNQNVQAAELLAEMAISSAQRRMRAAKKVVRKK |  | 0.47 | 
3 | strep-tagged Cpi1 (wild type) (natural protein, source: E. coli BL21 (DE3), pETDuet-1, purified (streptavidin resin, gel filtration)) MGIVFTNHNIDLLSVEFDEITKNCNYTFSVDGETAIFTARISIIRNIKGIKYSEELDKFIMSIMPLQPKVSKILGGVTWDCICGKEVGFPVRLIGK |  | 0.00303 | 8.58
